Assay results published in patent publication US20210063414A1, “METHODS FOR PREVENTING AND/OR TREATING BONE LOSS CONDITIONS BY MODULATING IRISIN” (Dana-Farber Cancer Institute, Inc., priority 2018, published 2021).

Assays:
Assay in all cases: Crosslinking/co-immunoprecipitation/mass spectrometry (TMT quantitative proteomics) to identify irisin receptors
Type in all cases: binding
[1] = target: T1, MLO-Y4 cell surface proteins (Mus musculus, UniProt E9Q557); conditions: co-precipitated protein Dsp (DESP_MOUSE)
T1 construct: endogenous in cells; host or cells: MLO-Y4
T1 sequence (E9Q557 whole entry): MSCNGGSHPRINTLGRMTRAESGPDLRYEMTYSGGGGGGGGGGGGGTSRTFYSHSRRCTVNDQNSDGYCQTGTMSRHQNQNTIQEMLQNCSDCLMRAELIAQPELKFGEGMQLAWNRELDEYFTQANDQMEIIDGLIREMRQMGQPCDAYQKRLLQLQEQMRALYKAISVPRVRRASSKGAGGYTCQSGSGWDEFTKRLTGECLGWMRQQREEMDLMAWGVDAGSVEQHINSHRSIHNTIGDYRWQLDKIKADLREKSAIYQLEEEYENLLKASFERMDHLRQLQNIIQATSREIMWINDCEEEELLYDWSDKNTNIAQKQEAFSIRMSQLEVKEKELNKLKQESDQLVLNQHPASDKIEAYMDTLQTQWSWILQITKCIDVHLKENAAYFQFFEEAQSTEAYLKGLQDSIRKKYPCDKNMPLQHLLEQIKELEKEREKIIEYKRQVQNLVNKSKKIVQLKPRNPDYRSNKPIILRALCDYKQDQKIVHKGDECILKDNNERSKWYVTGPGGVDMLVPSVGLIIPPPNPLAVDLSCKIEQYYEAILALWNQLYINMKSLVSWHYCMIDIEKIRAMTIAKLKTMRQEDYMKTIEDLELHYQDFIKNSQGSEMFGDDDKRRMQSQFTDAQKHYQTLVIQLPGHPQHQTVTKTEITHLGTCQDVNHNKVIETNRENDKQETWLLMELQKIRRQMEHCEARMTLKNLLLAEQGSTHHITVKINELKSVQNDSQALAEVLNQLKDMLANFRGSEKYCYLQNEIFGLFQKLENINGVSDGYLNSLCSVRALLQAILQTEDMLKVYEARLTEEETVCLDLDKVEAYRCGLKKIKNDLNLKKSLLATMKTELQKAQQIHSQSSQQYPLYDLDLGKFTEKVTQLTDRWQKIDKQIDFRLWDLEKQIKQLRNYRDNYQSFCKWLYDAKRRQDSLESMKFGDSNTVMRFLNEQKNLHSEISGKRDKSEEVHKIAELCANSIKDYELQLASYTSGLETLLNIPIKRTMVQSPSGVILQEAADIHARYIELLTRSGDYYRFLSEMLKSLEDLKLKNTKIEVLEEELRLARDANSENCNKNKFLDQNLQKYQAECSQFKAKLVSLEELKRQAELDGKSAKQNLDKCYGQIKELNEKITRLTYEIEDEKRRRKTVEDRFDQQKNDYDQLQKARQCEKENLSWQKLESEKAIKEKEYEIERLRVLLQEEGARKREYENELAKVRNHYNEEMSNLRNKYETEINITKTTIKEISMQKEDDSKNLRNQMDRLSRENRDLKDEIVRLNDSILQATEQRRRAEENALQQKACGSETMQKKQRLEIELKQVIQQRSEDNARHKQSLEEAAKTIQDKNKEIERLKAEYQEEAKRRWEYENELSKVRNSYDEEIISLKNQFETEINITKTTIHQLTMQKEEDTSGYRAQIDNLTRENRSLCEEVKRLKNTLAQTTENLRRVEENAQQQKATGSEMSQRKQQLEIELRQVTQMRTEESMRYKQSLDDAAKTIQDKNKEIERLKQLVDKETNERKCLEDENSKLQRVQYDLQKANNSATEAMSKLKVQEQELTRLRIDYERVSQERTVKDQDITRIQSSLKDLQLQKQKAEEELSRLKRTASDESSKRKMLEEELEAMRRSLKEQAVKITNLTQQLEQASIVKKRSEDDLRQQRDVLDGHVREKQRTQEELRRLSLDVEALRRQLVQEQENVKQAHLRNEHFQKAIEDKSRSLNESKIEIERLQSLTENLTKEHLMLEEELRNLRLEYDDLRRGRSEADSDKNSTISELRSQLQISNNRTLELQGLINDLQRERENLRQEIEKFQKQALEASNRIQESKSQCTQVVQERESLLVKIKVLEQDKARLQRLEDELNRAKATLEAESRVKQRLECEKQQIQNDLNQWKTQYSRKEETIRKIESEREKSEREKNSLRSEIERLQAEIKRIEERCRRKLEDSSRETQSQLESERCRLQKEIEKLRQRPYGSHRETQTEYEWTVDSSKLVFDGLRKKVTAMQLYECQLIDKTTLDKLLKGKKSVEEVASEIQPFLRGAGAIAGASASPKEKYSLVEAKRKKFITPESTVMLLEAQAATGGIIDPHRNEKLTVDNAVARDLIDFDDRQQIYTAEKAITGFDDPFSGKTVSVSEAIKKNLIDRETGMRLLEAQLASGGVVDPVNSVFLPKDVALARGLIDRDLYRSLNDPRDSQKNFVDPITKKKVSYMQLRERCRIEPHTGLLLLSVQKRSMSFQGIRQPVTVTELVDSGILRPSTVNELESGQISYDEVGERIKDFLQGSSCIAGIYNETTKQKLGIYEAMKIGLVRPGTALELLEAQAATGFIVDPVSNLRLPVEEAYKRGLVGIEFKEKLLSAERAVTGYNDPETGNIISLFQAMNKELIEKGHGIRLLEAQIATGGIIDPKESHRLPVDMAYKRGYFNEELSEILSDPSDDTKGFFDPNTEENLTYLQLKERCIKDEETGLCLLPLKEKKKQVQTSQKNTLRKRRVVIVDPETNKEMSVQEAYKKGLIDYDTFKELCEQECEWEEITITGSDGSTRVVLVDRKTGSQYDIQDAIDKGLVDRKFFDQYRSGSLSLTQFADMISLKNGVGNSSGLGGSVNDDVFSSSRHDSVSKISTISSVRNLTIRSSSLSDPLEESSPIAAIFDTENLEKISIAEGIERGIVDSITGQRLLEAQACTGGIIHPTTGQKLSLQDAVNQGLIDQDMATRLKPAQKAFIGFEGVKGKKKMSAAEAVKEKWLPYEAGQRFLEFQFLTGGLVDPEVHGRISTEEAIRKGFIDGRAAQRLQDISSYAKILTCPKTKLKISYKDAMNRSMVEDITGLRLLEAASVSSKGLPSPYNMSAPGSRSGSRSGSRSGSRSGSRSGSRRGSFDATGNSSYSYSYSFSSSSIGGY
Procedure, shortened: (§1)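 Mouse MLO-Y4 cells were switched to serum-free FreeStyle medium for 4 h, chilled, then exposed to 10 nM His-tagged irisin (or adipsin as control) for 20 min. Cells were crosslinked with 1.5 mM DTSSP (30 min, ice), and bound proteins were pulled down on Ni-NTA and eluted with 250 mM imidazole. Eluates were separated by SDS-PAGE, trypsin-digested in gel, TMT 6-plex labelled and quantified by MS3-based LC-MS/MS on an Orbitrap Fusion Lumos.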

[2] = target: T2, MLO-Y4 cell surface proteins (Mus musculus, UniProt P08249); conditions: co-precipitated protein Mdh2 (MDHM_MOUSE)
T2 construct: endogenous in cells; host or cells: MLO-Y4
T2 sequence (P08249 25-338): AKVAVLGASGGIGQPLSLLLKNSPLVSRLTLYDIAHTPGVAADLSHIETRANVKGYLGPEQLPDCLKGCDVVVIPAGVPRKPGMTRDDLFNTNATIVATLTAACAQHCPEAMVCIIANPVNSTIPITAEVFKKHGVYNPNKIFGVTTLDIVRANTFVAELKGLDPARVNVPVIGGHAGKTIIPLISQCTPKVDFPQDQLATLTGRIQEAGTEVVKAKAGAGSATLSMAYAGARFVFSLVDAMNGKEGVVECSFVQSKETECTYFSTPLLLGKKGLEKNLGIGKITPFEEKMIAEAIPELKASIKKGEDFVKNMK
Procedure, shortened: as §1

[3] = target: T3, MLO-Y4 cell surface proteins (Mus musculus, UniProt P61161); conditions: co-precipitated protein Actr2 (ARP2_MOUSE)
T3 construct: endogenous in cells; host or cells: MLO-Y4
Procedure, shortened: as §1

[4] = target: T4, MLO-Y4 cell surface proteins (Mus musculus, UniProt P62960); conditions: co-precipitated protein Ybx1 (YBOX1_MOUSE)
T4 construct: endogenous in cells; host or cells: MLO-Y4
T4 sequence (P62960 whole entry): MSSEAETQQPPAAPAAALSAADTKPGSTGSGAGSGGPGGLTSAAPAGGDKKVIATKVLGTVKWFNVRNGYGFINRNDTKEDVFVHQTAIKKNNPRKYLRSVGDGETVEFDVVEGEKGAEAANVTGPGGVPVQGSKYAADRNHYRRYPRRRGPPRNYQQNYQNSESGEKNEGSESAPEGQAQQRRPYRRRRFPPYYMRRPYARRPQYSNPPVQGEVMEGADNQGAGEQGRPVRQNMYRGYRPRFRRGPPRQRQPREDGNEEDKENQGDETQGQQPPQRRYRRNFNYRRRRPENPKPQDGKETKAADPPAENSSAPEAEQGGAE
Procedure, shortened: as §1

[5] = target: T5, MLO-Y4 cell surface proteins (Mus musculus, UniProt Q6ZPE2); conditions: co-precipitated protein Sbf1 (MTMR5_MOUSE)
T5 construct: endogenous in cells; host or cells: MLO-Y4
T5 sequence (Q6ZPE2 whole entry): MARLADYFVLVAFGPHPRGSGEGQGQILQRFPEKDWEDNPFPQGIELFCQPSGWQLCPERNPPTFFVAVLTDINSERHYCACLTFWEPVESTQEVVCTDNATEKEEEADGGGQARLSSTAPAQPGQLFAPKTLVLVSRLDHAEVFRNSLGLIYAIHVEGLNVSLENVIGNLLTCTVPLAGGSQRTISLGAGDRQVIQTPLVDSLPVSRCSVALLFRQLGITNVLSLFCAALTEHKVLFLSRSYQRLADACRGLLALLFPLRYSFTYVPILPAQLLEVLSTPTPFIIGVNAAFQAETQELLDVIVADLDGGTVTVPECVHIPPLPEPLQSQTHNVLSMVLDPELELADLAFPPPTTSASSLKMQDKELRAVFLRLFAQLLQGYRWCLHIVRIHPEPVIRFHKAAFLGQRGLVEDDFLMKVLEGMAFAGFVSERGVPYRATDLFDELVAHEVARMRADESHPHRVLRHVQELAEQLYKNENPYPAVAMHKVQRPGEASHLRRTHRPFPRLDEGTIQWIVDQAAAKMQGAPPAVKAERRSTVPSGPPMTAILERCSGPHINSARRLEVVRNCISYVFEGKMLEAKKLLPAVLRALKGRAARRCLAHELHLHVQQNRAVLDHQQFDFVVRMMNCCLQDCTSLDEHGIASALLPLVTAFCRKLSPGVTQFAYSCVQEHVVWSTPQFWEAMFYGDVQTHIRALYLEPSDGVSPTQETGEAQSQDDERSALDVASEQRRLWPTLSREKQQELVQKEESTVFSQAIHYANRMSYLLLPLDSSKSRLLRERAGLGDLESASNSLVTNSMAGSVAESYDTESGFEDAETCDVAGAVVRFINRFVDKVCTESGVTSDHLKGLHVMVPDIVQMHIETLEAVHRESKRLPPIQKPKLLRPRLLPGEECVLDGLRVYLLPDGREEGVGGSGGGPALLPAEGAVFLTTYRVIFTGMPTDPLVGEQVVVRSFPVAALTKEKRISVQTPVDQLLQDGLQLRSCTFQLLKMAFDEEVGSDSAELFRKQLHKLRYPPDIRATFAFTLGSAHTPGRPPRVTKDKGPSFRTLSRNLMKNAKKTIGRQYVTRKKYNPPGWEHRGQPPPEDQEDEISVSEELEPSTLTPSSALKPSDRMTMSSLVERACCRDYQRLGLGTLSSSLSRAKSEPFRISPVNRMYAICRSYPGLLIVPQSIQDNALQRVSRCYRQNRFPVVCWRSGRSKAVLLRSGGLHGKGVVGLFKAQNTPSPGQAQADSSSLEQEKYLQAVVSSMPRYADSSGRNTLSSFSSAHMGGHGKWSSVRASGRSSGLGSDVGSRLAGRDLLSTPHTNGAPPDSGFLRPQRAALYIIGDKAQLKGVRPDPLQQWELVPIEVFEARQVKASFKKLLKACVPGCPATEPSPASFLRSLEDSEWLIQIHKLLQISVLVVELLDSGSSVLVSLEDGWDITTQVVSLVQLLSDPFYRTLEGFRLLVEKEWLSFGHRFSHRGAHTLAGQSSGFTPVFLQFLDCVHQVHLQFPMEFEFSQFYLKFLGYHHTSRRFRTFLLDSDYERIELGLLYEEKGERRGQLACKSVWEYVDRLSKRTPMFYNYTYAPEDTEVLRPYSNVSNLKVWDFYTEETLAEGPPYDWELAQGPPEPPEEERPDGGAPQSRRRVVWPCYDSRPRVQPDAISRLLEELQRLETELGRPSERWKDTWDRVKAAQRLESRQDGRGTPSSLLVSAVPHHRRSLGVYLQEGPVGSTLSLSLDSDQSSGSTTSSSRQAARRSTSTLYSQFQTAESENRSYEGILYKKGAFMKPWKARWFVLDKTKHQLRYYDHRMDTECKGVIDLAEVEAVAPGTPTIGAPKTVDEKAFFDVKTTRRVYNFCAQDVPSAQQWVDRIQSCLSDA
Procedure, shortened: as §1

[6] = target: T6, MLO-Y4 cell surface proteins (Mus musculus, UniProt Q8BFT2); conditions: co-precipitated protein Haus4 (HAUS4_MOUSE)
T6 construct: endogenous in cells; host or cells: MLO-Y4
T6 sequence (Q8BFT2 1-363): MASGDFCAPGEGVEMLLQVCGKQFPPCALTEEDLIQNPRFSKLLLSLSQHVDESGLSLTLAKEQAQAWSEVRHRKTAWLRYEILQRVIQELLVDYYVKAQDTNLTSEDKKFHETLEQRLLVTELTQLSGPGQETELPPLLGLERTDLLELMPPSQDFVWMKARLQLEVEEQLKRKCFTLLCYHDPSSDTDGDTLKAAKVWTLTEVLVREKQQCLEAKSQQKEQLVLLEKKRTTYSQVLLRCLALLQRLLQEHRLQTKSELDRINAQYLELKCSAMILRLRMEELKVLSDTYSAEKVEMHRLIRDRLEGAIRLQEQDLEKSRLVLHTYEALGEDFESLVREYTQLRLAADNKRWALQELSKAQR
Procedure, shortened: as §1

B1: irisin: secreted cleaved form of FNDC5; recombinant human/mouse irisin with C-terminal his tag produced in HEK293 cells (protein)
chain: DSPSAPVNVTVRHLKANSAVVSWDVLEDEVVIGFAISQQKKDVRMLRFIQEVNTTTRSCALWDLEEDTEYIVHVQAISIQGQSPASEPVLFKTPREAEKMASKNKDEVTMKE
modifications: left off: small tags and cut ends
notes: secreted cleaved form of FNDC5; recombinant human/mouse irisin with C-terminal his tag produced in HEK293 cells
- TMT signal-to-noise ratio [1]: 2.707
- irisin/adipsin TMT signal-to-noise ratio [1]: 0.034
- TMT signal-to-noise ratio [2]: 858.89
- irisin/adipsin TMT signal-to-noise ratio [2]: 0.336
- TMT signal-to-noise ratio [3]: 84.7644
- irisin/adipsin TMT signal-to-noise ratio [3]: 0.552
- irisin/adipsin TMT signal-to-noise ratio [4]: 0.277
- TMT signal-to-noise ratio [5]: 37.3228
- irisin/adipsin TMT signal-to-noise ratio [5]: 0.525
- TMT signal-to-noise ratio [6]: 230.984
- irisin/adipsin TMT signal-to-noise ratio [6]: 0.446
